From the supplement of paper PMC6757056
± gives the standard deviation of the averaged measurements.

B1: library; a variant is named by its letters at N, in order (parent)
chain: GCUGUCACCGGUGCUUGGUACGUUAUAUUCAGCCGGUCUGAUGAGUCUNNNNNNAGACGAAACAGC

What was measured:
(6R,S)-folinic acid [1] = variants of: B1; assay: FACS-Seq fitted mean relative fluorescence mCherry/BFP without ligand (log10 relative fluorescence); HEK293T overexpressing SLC46A1; higher = higher reporter protein expression; details: without (6R,S)-folinic acid; ligand present: no
How it was run: (§1)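 To measure fluorescence, a normal distribution was fitted to read counts across sorted bins. The reporter libraries were HEK293T cells transduced by lentivirus with mCherry under ribozyme-switch control and an EF1α-BFP marker, enriched and then kept with or without ligand for 48 h. Sorting used 6 mCherry/BFP bins, and bin genomic DNA was PCR-amplified and sequenced on MiSeq. Fitted means of log10(mCherry/BFP) were scaled to five spiked-in control ribozymes.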

(6R,S)-folinic acid [2] = variants of: B1; assay: normalized RNA/DNA level without ligand (relative to sTRSVctl = 100) (log10 (% of sTRSVctl)); HEK293T overexpressing SLC46A1; higher = less ribozyme self-cleavage, higher mRNA level; details: without (6R,S)-folinic acid; ligand present: no
How it was run: (§2)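 Library plasmids carrying ribozyme switches linked to mCherry, or to eGFP in some ligand experiments, were transfected into HEK293T at 4 µg per 6-well well, with any ligand added 1 h earlier. Seventy-two hours on, total RNA was extracted with EDTA and reverse-transcribed, amplified, barcoded and sequenced. RNA level was RNA over DNA reads normalized to a spiked-in non-cleaving sequence or to the top sequences, then scaled and log-transformed. The top set was 25 sequences, the transform was ×100 and log10, and sequences needed ≥100 DNA reads.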

(6R,S)-folinic acid [3] = variants of: B1; assay: FACS-Seq fitted mean relative fluorescence mCherry/BFP with ligand (log10 relative fluorescence); HEK293T overexpressing SLC46A1; ligand concentration (+) FACS-Seq: 6 mM; higher = higher reporter protein expression; details: with (6R,S)-folinic acid; ligand present: yes
How it was run: as §1

(6R,S)-folinic acid [4] = variants of: B1; assay: normalized RNA/DNA level with ligand (relative to sTRSVctl = 100) (log10 (% of sTRSVctl)); HEK293T overexpressing SLC46A1; ligand concentration (+) RNA-Seq: 6 mM; higher = less ribozyme self-cleavage, higher mRNA level; details: with (6R,S)-folinic acid; ligand present: yes
How it was run: as §2

Variant | FACS-Seq fitted mean (log10) ((6R,S)-folinic acid [1]) | normalized RNA/DNA level without ligand (log10) ((6R,S)-folinic acid [2]) | FACS-Seq fitted mean (log10) ((6R,S)-folinic acid [3]) | normalized RNA/DNA level with ligand (log10) ((6R,S)-folinic acid [4])
UCUUUU | 0.427 ± 0.12 | 2.005 ± 0.0088 | 0.26 ± 0.18 | 2.027 ± 0.013
CCUUAU | 0.278 ± 0.013 | 2.023 ± 0.0064 | 0.394 ± 0.22 | 2.05 ± 0.022
UCUGUU | 0.459 ± 0.039 | 2.02 ± 0.03 | 0.679 ± 0.29 | 2.0647 ± 0.00045
CCUGAU | -0.195 ± 0.23 | 2.02 ± 0.024 | -0.196 ± 0.058 | 2.05 ± 0.028
GGAAAA | 0.526 ± 0.051 | 1.983 ± 0.011 | 0.455 ± 0.15 | 2.04 ± 0.041
GGAAAC | 0.359 ± 0.026 | 2.021 ± 0.0084 | 0.243 ± 0.22 | 2.0107 ± 0.00078
UGAAAC | 0.4232 ± 0.0017 | 1.946 ± 0.0065 | 0.578 ± 0.21 | 2 ± 0.042
UGAAAA | 0.648 ± 0.13 | 1.98 ± 0.021 | 0.692 ± 0.22 | 1.992 ± 0.019
CGAAAA | 0.189 ± 0.032 | 1.955 ± 0.014 | 0.493 ± 0.17 | 1.98 ± 0.022
CGAAAG | -0.0838 ± 0.12 | 1.9719 ± 0.00015 | 0.0563 ± 0.36 | 1.98 ± 0.027
GCUCAA | 0.44 ± 0.027 | 1.978 ± 0.0021 | 0.374 ± 0.1 | 1.985 ± 0.013
GCUCAU | -0.192 ± 0.045 | 2.02 ± 0.029 | -0.09 ± 0.67 | 2.009 ± 0.013
GCUCAC | 0.502 ± 0.15 | 2.046 ± 0.0078 | 0.372 ± 0.23 | 2.032 ± 0.01
UCGUAC | 0.373 ± 0.053 | 2.032 ± 0.019 | 0.343 ± 0.14 | 2.049 ± 0.0073
UCGUAA | -0.407 ± 0.028 | 1.937 ± 0.0094 | -0.393 ± 0.27 | 2.007 ± 0.0097
ACGUAG | 0.217 ± 0.032 | 1.912 ± 0.0036 | 0.598 ± 0.16 | 1.9927 ± 0.0014
ACGUAA | 0.69 ± 0.24 | 1.962 ± 0.0024 | 0.689 ± 0.3 | 2.006 ± 0.0065
GCUCUG | 0.433 ± 0.072 | 1.99 ± 0.024 | 0.646 ± 0.038 | 2.03 ± 0.037

Variant | FACS-Seq fitted mean (log10) ((6R,S)-folinic acid [1]) | normalized RNA/DNA level without ligand (log10) ((6R,S)-folinic acid [2]) | FACS-Seq fitted mean (log10) ((6R,S)-folinic acid [3]) | normalized RNA/DNA level with ligand (log10) ((6R,S)-folinic acid [4])
GCUAUA | 0.337 ± 0.086 | 1.985 ± 0.014 | 0.51 ± 0.19 | 2.019 ± 0.0034
GCUCGU | 0.5943 ± 0.0012 | 2.0305 ± 0.0014 | 0.851 ± 0.091 | 2.02 ± 0.037
UCUCGU | 0.148 ± 0.028 | 1.9916 ± 0.0016 | -0.0695 ± 0.1 | 2.012 ± 0.013
UCUCGA | 0.597 ± 0.079 | 2.071 ± 0.012 | 0.413 ± 0.029 | 2.03 ± 0.021
ACGGUU | 0.41 ± 0.022 | 1.99 ± 0.02 | 0.495 ± 0.047 | 2.01 ± 0.025
UCUUAG | 0.183 ± 0.18 | 1.86 ± 0.053 | -0.141 ± 0.14 | 2.02 ± 0.019
CCUAGC | 0.339 ± 0.022 | 2.075 ± 0.011 | 0.3 ± 0.46 | 2.053 ± 0.006
GCGUGG | 0.353 ± 0.032 | 1.968 ± 0.0025 | 0.444 ± 0.14 | 2.06 ± 0.046
CCUCCA | 0.578 ± 0.057 | 2.02 ± 0.031 | 0.469 ± 0.016 | 2.04 ± 0.027
GCUUAA | 0.522 ± 0.21 | 1.9846 ± 0.00062 | 0.5605 ± 0.0027 | 2.01 ± 0.023
GCUUAC | 0.583 ± 0.13 | 2.02 ± 0.026 | 0.554 ± 0.32 | 2.01 ± 0.052
ACUCAA | 0.314 ± 0.088 | 1.973 ± 0.015 | 0.365 ± 0.012 | 2 ± 0.028
ACUCAU | 0.258 ± 0.022 | 2.013 ± 0.0051 | 0.187 ± 0.11 | 2.04 ± 0.029
GCUAAU | 0.513 ± 0.029 | 1.986 ± 0.0026 | 0.516 ± 0.027 | 2.02 ± 0.022
ACUUAU | 0.328 ± 0.084 | 1.991 ± 0.0041 | 0.329 ± 0.12 | 2.02 ± 0.031
ACUUAG | 0.58 ± 0.02 | 1.93 ± 0.0033 | 0.402 ± 0.071 | 1.978 ± 0.0025
ACUUAA | -0.0941 ± 0.16 | 1.974 ± 0.011 | -0.044 ± 0.31 | 1.98 ± 0.033
ACUUAC | 0.478 ± 0.045 | 2.009 ± 0.0089 | 0.5359 ± 0.00057 | 2.016 ± 0.014
